Data taken from publication PMC4166353.

Legend:
[1] = target: Fluorescence quenched C4 P4-P4' substrate, 2-aminobenzoate-GLQRALEI-Lys(Dinitrophenol)-NH2

Substance | EC50 for cleavage of the C4 alpha chain (C4 1 uM, enzyme 0-5 nM, 1 h, 37 C, SDS-PAGE densitometry) (Complement component C4) [nM] | kcat/K0.5 for cleavage of the fluorescence quenched C4 P4-P4' peptide (400 nM enzyme, 0.5-500 uM substrate, 37 C) [1] [M⁻¹ s⁻¹]
Recombinant human C1s K628A mutant, activated (from UniProt P09871 16-688) (enzyme) | 0.77 | 110000
Recombinant human C1s K628Q mutant, activated (from UniProt P09871 16-688) (enzyme) | 0.76 | 95000
Recombinant human C1s, wild type, activated (from UniProt P09871 16-688) (enzyme) | 0.16 | 82000
